These results are taken from paper PMC12377726 (Proceedings of the National Academy of Sciences of the …, 2025).

Sequences and labels used below:
B1: G001_gp1_V08_VRC01c_136 (antibody, V domains shown)
VH: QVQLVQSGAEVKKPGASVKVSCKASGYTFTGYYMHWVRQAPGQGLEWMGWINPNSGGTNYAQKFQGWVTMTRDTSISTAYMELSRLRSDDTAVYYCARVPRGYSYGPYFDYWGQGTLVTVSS
VL: EIVMTQSPATLSVSPGERATLSCRASQSVSSNLAWYQQKPGQAPRLLIYGASTRATGIPARFSGSGSGTEFTLTISSLQSEDFAVYYCQQYSTFGGGTKVEIK
B2: G001_gp1_V08_VRC01c_151 (antibody, V domains shown)
VH: QVQLVQSGAEVKKPGASVKVSCKASGYTFTDYYMHWVRQTPGQGLEWMGWMNPKSGGTNYALQFQGRVTMTRDTSISTAYMELSRLRSDDTAIYYCATKAYTNRAFDIWGQGTMVTVSS
VL: EIVLTQSPGTLSLSPGERATLSCRASQSVNSNSLAWYQQKPGQAPRLLIFAAYTRATGIPDRFSGSGSGTDFTLTISRLEPEDFAVYYCQQYDTFGQGTKVEIK
B3: G001_gp1_V08_VRC01c_142 (antibody, V domains shown)
VH: QVQLVQSGAEVKKPGASVKVSCKASGYTFTGDYMHWVRQAPGQGLEWMGWINPNSGGTNYAQKFQGWVTMTRDTSISTAYMEVRLRSDDTAVYYCARAGYSSSWGFGFWGQGTLVTVSS
VL: QSVLTQPPSVSGAPGERVTISCTGSSSNIGAGYDVHWYQQLPGTAPKLLIFGTSNRPSGVPDRFSGSKSGTSASLAITGLQAEDEADYYCQSYEFFGGGTKLTVL
B4: G001_gp1_V08_VRC01c_138 (antibody, V domains shown)
VH: QVQLVQSGAEVKKPGASVKVSCKASGYTFTDYYMYWVRQAPGQGLEWMGWINPNSGGTNYAQKFQGRVTMTRDTSISTAYMELSGLRSDDTAVYYCARRPNPYSGYDSNAFDIWGQGTMVTVSS
VL: DIQMTQSPSTLSASVGDRVTITCRASQSISSWLAWYQQKPGKAPKLLIYKASSLESGVPSRFSGSGSGTEFTLTISSLQPDDSATYYCQQYETFGQGTKVEIK
B5: G001_gp1_V08_VRC01c_146 (antibody, V domains shown)
VH: B4 VH with S77T, L83V, S84R, G85R, V93M, S108F
VL: B4 VL with S31N, A51T, S53N, S56G, S83L, T93M
B6: G001_gp1_V08_VRC01c_141 (antibody, V domains shown)
VH: QVQLVQSGAEVKKPGASVKVSCKASGYSFTDYYMHWVRQAPGQGLEWMGWINPNSGGSNYAQKFQGRVTMTRDSFISTAYMELSRLRSDDTAVYYCAYYDSGTYRYWGQGTLVTVSS
VL: B4 VL with Y36F, S83F
B7: G001_gp1_V08_VRC01c_140 (antibody, V domains shown)
VH: QVQLVQSGAEVKMPGTSVKVSCKASGYTFTDYYMHWVRQAPGQGLEWMGWINPNSGGTNYEQRFQGRVTMTRDTSISTAYMDLRRLRSDDTAVYYCATSLVETSTHWAFDLWGQGTMVTVSS
VL: B4 VL with I2F, A25T, I29F, S31T, K50E, E55Q, S83L, E101A
B8: G001_gp1_V08_VRC01c_143 (antibody, V domains shown)
VH: QVQLVQSGAEVRKPGASVKVSCKASGFTFSDYYIHWVRQAPGQGLEWMGWINPNSGGTNYARKFQGRVTMTRDRSISTAYMELSRLRSDDTAVYYCARGLHTSGWYFAFWGQGTLVTVSS
VL: DIQMTQSPSSLSASVGDRVTITCQARQDTSNYLHWYQQKPGKAPKLLIYDASKLEPGVPSRFSGSGSGTDFTFTISNLQPEDIGTYYCQQYEAFGGGTKVEIK
B9: G001_gp1_V08_VRC01c_149 (antibody, V domains shown)
VH: QVQLVQSGAEVKKPGASVKVSCKTSGYTFTDYYMHWVRQAPGQGLEWMGWINPNSGGTNYAQKFQGRVTMTRDTSIRTVYMELSWLRSDDTAVFYCARHYRSSGWDFDYWGQGTLVTVSS
VL: DIVLTQSPDSLTVSLGERATINCKSSPSGLYSSNNKNYLTWYQQKPGQPPKLLIYWASTRESGVPDRFSGSGSGTDFTLTISSLQAEDVAVYYCQQYETFGGGTKVEIK
B10: G001_gp1_V08_VRC01c_128 (antibody, V domains shown)
VH: QVQLVQSGAEVKKPGASVKVSCKASGYTFIDYYMHWVRQAPGQGLEWMGWINPNSGGTNYAQQFQGWVTMTRDTSISTAYMELSRLRSDDTAVYYCATSIVAAGSYWYFDLWGRGTLVTVSS
VL: EIVLTQSPGTLSLSPGERATLSCRASQSVTSSYLAWYQKKPGQAPRLLIYGASSRATGIPDRFSGSGSGTDFTLTISRLEPEDFAVYYCQQYEFFGQGTKLEIK
B11: G001_gp1_V08_VRC01c_145 (antibody, V domains shown)
VH: QVQLVQSGAEVKKPGASVKVSCRASGYTFTAYYIHWVRQAPGQGLEWMGWINPNSGGTNYAQKFQGRVTMTRDTSISTAYMELRRLRSDDTAVYYCARRFVSSGYYYAYWGQGTLVTVSS
VL: B10 VL with T30S, K39Q, I49F, V86I, Q91H, F94T, L101V
B12: G001_gp1_V08_VRC01c_158 (antibody, V domains shown)
VH: QVQLVQSGAEVKKPGASVKVSCKASGYTFTDYYMHWVRQAPGQGLEWMGWLNPNSGGTNYAQKFQDWVTMTRDTSIRTAYLELSRLKLDDTAIYYCARRIDYLDAFDIWGQGTMVTVSS
VL: B10 VL with T30S, S31R, S32R, K39Q, P41T, F94M, L101V
B13: G001_gp1_V08_VRC01c_131 (antibody, V domains shown)
VH: QVQLVQSGAEVKKPGASVKVSCKASGYTFTDYYIYWLRQAPGHGLEWMGWINPNSGGTNYAQKFQDWVTMTRDTSISTAYMELSRLSSDDTAVYYCARRNDYLGGSYRYSAFDIWGQGTMVTVSS
VL: B10 VL with S28K, T30S, S32R, K39Q, F94T
B14: G001_gp1_V08_VRC01c_139 (antibody, V domains shown)
VH: QVQLVQSGAEVKKPGASVKVSCKASGYTFTGSYMHWVRQAPGQGLEWMGWINPNSGGTNYAQKFQGRVTLTRDTSISTAYMELTRLRSDDTTVFYCATSRSGDWYFDLWGRGTLVTVSS
VL: B10 VL with V29A, T30S, K39Q, V86M, F94T
B15: G001_gp1_V08_VRC01c_130 (antibody, V domains shown)
VH: QVQLVQSGAEVKKPGASVKVSCKASGYTFTGYYMHWVRQAPGQGLEWLGWINPNSGGTNYAQKFQGWVTMTRDTSISTAYMELSRLRSDDTAVYYCATVAGYSSSWQRGWAFDIWGQGTMVTVSS
VL: B10 VL with R18G, T30S, Y33S, K39Q, Q91L, F94T, L101V
B16: G001_gp1_V08_VRC01c_133 (antibody, V domains shown)
VH: QVQLVQSGAEVKKPGASVKVSCKASGYTFTDYYLHWVRQAPGQGLEWMGWINPNSGGTNYARKFQDWVTMTRDTSISTAYMELSRLRSDDTAVYYCARGKTTVSWYFEYWAQGTLVTVSS
VL: B10 VL with T30S, K39Q, F84S, F94T, L101V
B17: G001_gp1_V08_VRC01c_134 (antibody, V domains shown)
VH: B10 VH with I30T, Q63K, R87T, V101K, A103T, G104N, S105Y, Y106N, Y108N
VL: EIVLTQSPGTLSLSPGERATLSCRASQSVTSNLAWYQQKPGQAPRLLIYGASSRATGIPDRFSGSGSGTDFTLTISRLEPEDFAVYYCQQYESFGQGTKLEIK
B18: G001_gp1_V08_VRC01c_132 (antibody, V domains shown)
VH: QVQLVQSGAEVKKPGASVKVSCKASGYTFSGYYMHWVRQAPGQGLEWMGWINPNSGGTNYAQKFQGWVTMTRDTSISTAYMELSRLKSDDTAVYYCARVEHTSGWCFDSWGQGTLVTVSS
VL: DIQMTQSPSSLSASVGDRVTITCQASQDISNYLNWYQQKPGKAPKLLISDASNLETGVPSRFSGSGSGTDFTFTISSLQPEDIATYYCQQYDIFGPGTKVEIK
B19: G001_gp1_V08_VRC01c_153 (antibody, V domains shown)
VH: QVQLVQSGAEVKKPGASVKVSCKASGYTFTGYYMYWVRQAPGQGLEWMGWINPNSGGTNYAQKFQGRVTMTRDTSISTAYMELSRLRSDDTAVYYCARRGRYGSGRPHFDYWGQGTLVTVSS
VL: B18 VL with S26T, Q38H, S49Y, N53T, E55V, S67Y, Q90E, D92L, I93L, P96G
B20: G001_gp1_V08_VRC01c_147 (antibody, V domains shown)
VH: QVQLVQSGAEVKQPGASVKVSCKASGYTFTGYYIHWIRQAPGQGLEWMGWINPKSGGTNYARNFQGRVTMTRDTSISTSYLLLSRLRSDDTAVYYCFRGAEGWLLKYWGQGTLVTVSS
VL: B18 VL with S49Y, Y87F, Q90H, D92E, I93F, E101D
B21: G001_gp1_V08_VRC01c_135 (antibody, V domains shown)
VH: QVQLVQSGAEVKKPGASVKVSCKASGYIFTGYYMHWVRQAPGQGLEWMGWINPNSGGTNYAQKFQGWVTMTRDTSISTAYMELSRLRSDDTAVYYCASSVGVPAARGWAFDMWGQGTMVTVSS
VL: B18 VL with S49Y, N53D, I93L, E101D
B22: G001_gp1_V08_VRC01c_144 (antibody, V domains shown)
VH: QVQLVQSGAEVKKPGASVKVSCKASGYTFSGHYMHWVRQAPGQGLEWMGWINPNSGGTNYAQKFQGRVTMTRDTSISSAYMELSRLRSDDTAVYYCATHTGSGSSWSFDSWGQGTLVTVSS
VL: B18 VL with S49Y, D92E, I93Y, P96Q, K99R, V100L
B23: G001_gp1_V08_VRC01c_2021-0052 (antibody, V domains shown)
VH: QVQLVQSGAEVKKPGASVKVSCKASGHTFSGYYMHWVRQAPGQGLEWMGWINPNSGGTNYAQKFQGRVTMTRDTSISTAYMELSRLRTYDTAVYYCARAYSSGWRFGWGQGTMVTVSS
VL: B18 VL with S30T, N31K, K42Q, S49Y, D70Y, I93N, P96G

Residue numbers refer to the chain shown, from its start.

The target of this experiment is eOD-GT8 (engineered outer domain germline-targeting version 8), monomer (HIV-1 gp120 engineered outer domain, …).
With B1, the binding result is “binds”.

Take B2: the binding result is “binds”.

Turning to B3, the binding result is “binds”.

Consider B4, for which the binding result is listed as “binds”.

Take B5: the binding result is on record as “binds”.

Turning to B6, the binding result is “binds”.

As to B7, the binding result is reported as “binds”.

As for B8, the binding result is on record as “binds”.

Take B9: the binding result is given as “binds”.

In the case of B10, the binding result is given as “binds”.

B11: the binding result is “binds”.

Turning to B12, the binding result is listed as “binds”.

Consider B13, for which the binding result is reported as “binds”.

Turning to B14, the binding result is listed as “binds”.

In the case of B15, the binding result is on record as “binds”.

Turning to B16, the binding result was “binds”.

As for B17, the binding result is given as “binds”.

Consider B18, for which the binding result is on record as “binds”.

In the case of B19, the binding result is listed as “binds”.

With B20, the binding result is recorded as “binds”.

B21: the binding result is given as “binds”.

Take B22: the binding result was “binds”.

B23: the binding result was “binds”.
